Molecular target: GABARAP (human) (UniProt O95166)
Experiment: ITC, GABARAP titrated into the peptide

GABARAP (human), sequence (O95166 whole entry): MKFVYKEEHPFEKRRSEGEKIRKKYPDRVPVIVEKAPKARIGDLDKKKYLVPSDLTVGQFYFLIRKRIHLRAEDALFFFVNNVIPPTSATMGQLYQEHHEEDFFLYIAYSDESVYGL

Kd: 633 nM
Substance: FAM134B LIR-L E462R (peptide)
